The target in this assay is 3XFLAG-ZAPL N658A (human) (UniProt Q7Z2W4). The assay is described as follows: co-IP; 3XFLAG-ZAPL and myc-TRIM25 co-transfected into ZAP KO HEK293T cells; lysed in FLAG buffer (100mM Tris HCl pH8.0, 150mM NaCl, 5mM EDTA, 5% glycerol, 0.1% NP-40, 1mM DTT); FLAG beads with lysates at 4°C for 45 min, three washes, immunoblot; densitometry of myc-TRIM25 normalized to FLAG-ZAP pulldown and to WT. (In general: A western blot detects proteins with antibodies after separation by electrophoresis.)
UniProt Q7Z2W4, sequence (Q7Z2W4 whole entry N658A): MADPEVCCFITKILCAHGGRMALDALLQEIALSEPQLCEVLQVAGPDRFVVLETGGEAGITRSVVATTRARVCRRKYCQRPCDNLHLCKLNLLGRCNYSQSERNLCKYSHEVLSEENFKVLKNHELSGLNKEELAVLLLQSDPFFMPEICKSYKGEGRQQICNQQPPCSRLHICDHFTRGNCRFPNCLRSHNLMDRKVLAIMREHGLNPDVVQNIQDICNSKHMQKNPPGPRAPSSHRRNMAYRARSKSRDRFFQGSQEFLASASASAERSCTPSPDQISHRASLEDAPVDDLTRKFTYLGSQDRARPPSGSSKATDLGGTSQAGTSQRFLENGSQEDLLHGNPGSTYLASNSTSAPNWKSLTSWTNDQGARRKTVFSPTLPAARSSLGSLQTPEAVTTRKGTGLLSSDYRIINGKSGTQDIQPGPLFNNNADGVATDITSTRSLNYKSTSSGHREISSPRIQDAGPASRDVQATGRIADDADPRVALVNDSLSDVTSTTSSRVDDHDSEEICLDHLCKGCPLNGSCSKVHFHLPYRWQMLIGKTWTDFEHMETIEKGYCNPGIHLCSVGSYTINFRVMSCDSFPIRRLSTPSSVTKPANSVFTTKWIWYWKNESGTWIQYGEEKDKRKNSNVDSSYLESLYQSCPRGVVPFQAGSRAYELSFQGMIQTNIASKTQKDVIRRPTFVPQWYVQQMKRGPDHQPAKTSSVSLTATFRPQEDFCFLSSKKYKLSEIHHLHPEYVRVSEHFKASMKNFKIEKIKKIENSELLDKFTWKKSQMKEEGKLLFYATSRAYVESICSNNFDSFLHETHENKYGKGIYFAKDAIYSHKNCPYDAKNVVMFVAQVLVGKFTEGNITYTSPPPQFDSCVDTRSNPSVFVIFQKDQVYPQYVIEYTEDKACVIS

“myc-TRIM25 (tripartite motif containing 25) (from UniProt Q14258 1-630) (natural protein)” came in with a myc-TRIM25 immunoprecipitated by FLAG-ZAP, relative to ZAPL WT (x (fold of ZAPL WT)) of 1.09.

(Values after article PMC11361444.)
